# T1: Abp1, P15891
# T1 sequence (P15891 535-592, looked up): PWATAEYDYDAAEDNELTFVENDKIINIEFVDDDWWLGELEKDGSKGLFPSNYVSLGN
# T2: Bbc1, P47068
# T2 sequence (P47068 1-78, looked up): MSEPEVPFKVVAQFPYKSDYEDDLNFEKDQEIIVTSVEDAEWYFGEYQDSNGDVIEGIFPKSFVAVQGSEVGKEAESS
# T3: Boi1, P38041
# T3 sequence (P38041 1-86, looked up): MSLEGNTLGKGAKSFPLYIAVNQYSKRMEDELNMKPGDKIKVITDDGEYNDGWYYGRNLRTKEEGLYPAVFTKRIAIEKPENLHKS
# T4: Boi2, P39969
# T4 sequence (P39969 32-116, looked up): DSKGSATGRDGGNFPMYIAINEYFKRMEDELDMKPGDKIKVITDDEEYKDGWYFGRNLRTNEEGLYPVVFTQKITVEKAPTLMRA
# T5: Bud14, P27637
# T5 sequence (P27637 247-328, looked up): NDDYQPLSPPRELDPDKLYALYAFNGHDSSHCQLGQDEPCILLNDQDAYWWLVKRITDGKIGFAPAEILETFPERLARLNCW
# T6: Bzz1-1, P38822
# T6 sequence (P38822 478-572, looked up): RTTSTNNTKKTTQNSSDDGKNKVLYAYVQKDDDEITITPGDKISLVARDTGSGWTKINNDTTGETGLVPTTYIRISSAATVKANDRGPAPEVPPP
# T7: Bzz1-2, P38822
# T7 sequence (P38822 568-633, looked up): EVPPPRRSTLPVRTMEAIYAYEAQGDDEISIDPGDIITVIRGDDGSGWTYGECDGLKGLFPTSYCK
# T8: Cdc25, P04821
# T8 sequence (P04821 50-136, looked up): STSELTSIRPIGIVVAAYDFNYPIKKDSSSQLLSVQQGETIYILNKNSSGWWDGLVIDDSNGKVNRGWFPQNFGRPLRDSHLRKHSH
# T9: Cyk3, Q07533
# T9 sequence (Q07533 1-83, looked up): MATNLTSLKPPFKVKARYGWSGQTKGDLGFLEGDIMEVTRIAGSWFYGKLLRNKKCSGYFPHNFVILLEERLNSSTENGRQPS
# T10: Fus1, P11710
# T10 sequence (P11710 432-512, looked up): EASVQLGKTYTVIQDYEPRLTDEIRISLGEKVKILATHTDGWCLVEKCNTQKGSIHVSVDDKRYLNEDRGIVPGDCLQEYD
# T11: Hof1, Q05080
# T11 sequence (Q05080 590-669, looked up): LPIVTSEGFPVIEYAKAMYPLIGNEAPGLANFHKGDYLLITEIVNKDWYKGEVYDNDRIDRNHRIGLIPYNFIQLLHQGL
# T12: Hse1, P38753
# T12 sequence (P38753 208-285, looked up): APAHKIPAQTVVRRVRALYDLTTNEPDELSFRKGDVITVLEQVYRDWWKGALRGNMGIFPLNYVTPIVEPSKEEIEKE
# T13: Lsb1, P53281
# T13 sequence (P53281 45-122, looked up): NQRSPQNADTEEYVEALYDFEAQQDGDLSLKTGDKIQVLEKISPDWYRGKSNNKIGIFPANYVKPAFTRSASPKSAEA
# T14: Lsb3, P43603
# T14 sequence (P43603 385-451, looked up): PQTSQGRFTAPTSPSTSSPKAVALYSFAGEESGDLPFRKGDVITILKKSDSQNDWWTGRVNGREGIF
# T15: Lsb4, P32793
# T15 sequence (P32793 402-468, looked up): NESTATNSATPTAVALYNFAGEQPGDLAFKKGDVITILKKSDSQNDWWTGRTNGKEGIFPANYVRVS
# T16: Myo5, Q04439
# T16 sequence (Q04439 1072-1160, looked up): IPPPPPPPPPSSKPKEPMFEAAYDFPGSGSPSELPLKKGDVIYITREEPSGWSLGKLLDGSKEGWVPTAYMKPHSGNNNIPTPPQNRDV
# T17: Nbp2, Q12163
# T17 sequence (Q12163 103-180, looked up): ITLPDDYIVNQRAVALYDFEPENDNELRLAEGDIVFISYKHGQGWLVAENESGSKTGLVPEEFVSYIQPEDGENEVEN
# T18: Pex13, P80667
# T18 sequence (P80667 295-386, looked up): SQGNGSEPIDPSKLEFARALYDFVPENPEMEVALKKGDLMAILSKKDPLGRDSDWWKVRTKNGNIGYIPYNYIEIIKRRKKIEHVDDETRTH
# T19: Pin3, Q06449
# T19 sequence (Q06449 53-122, looked up): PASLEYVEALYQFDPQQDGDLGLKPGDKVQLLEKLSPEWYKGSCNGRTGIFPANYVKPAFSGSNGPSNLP
# T20: Sla1-2, P32790
# T20 sequence (P32790 60-140, looked up): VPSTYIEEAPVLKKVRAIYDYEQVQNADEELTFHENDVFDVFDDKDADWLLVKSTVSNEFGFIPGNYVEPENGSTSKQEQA
# T21: Sla1-3, P32790
# T21 sequence (P32790 344-424, looked up): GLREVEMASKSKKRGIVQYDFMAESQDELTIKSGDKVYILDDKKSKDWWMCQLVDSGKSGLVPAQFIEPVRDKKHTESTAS
# Target: T1, Abp1, P15891
# Assay: SPOT array
# Conditions: median of control spots 935
row,Binder,SPOT intensity
1,RKNRAPPQRPRFNRE,235
2,RLSRLLLSLPPESFT,57
3,APKREAPKPPANTSP,9

# Target: T2, Bbc1, P47068
# Assay: SPOT array
# Conditions: median of control spots 796
row,Binder,SPOT intensity
1,RKNRAPPQRPRFNRE,362
2,RLSRLLLSLPPESFT,47
3,APKREAPKPPANTSP,56

# Target: Bem1-1, P29366
# Sequence (P29366 55-141): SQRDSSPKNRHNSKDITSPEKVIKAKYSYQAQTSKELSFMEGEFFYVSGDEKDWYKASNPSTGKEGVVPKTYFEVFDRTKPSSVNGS
# Assay: SPOT array
# Conditions: median of control spots 4282
row,Binder,SPOT intensity
1,RKNRAPPQRPRFNRE,0
2,RLSRLLLSLPPESFT,0
3,APKREAPKPPANTSP,0

# Target: Bem1-2, P29366
# Sequence (P29366 139-227): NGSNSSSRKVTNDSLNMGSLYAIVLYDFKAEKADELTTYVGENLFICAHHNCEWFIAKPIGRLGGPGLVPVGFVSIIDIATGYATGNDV
# Assay: SPOT array
# Conditions: median of control spots 4347
row,Binder,SPOT intensity
1,RKNRAPPQRPRFNRE,65
2,RLSRLLLSLPPESFT,11
3,APKREAPKPPANTSP,0

# Target: T3, Boi1, P38041
# Assay: SPOT array
# Conditions: median of control spots 1162
row,Binder,SPOT intensity
1,RKNRAPPQRPRFNRE,8
2,RLSRLLLSLPPESFT,7
3,APKREAPKPPANTSP,0

# Target: T4, Boi2, P39969
# Assay: SPOT array
# Conditions: median of control spots 1161
row,Binder,SPOT intensity
1,RKNRAPPQRPRFNRE,3
2,RLSRLLLSLPPESFT,2
3,APKREAPKPPANTSP,0

# Target: T5, Bud14, P27637
# Assay: SPOT array
# Conditions: median of control spots 956
row,Binder,SPOT intensity
1,RKNRAPPQRPRFNRE,15
2,RLSRLLLSLPPESFT,50
3,APKREAPKPPANTSP,0

# Target: T6, Bzz1-1, P38822
# Assay: SPOT array
# Conditions: median of control spots 4446
row,Binder,SPOT intensity
1,RKNRAPPQRPRFNRE,8
2,RLSRLLLSLPPESFT,0
3,APKREAPKPPANTSP,10

# Target: T7, Bzz1-2, P38822
# Assay: SPOT array
# Conditions: median of control spots 4538
row,Binder,SPOT intensity
1,RKNRAPPQRPRFNRE,77
2,RLSRLLLSLPPESFT,4
3,APKREAPKPPANTSP,0

# Target: T8, Cdc25, P04821
# Assay: SPOT array
# Conditions: median of control spots 969
row,Binder,SPOT intensity
1,RKNRAPPQRPRFNRE,30
2,RLSRLLLSLPPESFT,172
3,APKREAPKPPANTSP,3

# Target: T9, Cyk3, Q07533
# Assay: SPOT array
# Conditions: median of control spots 1451
row,Binder,SPOT intensity
1,RKNRAPPQRPRFNRE,4
2,RLSRLLLSLPPESFT,2
3,APKREAPKPPANTSP,0

# Target: T10, Fus1, P11710
# Assay: SPOT array
# Conditions: median of control spots 1200
row,Binder,SPOT intensity
1,RKNRAPPQRPRFNRE,14
2,RLSRLLLSLPPESFT,81
3,APKREAPKPPANTSP,0

# Target: GST
# Assay: SPOT array
# Conditions: median of control spots 978
row,Binder,SPOT intensity
1,RKNRAPPQRPRFNRE,4
2,RLSRLLLSLPPESFT,0
3,APKREAPKPPANTSP,0

# Target: T11, Hof1, Q05080
# Assay: SPOT array
# Conditions: median of control spots 4086
row,Binder,SPOT intensity
1,RKNRAPPQRPRFNRE,6
2,RLSRLLLSLPPESFT,89
3,APKREAPKPPANTSP,0

# Target: T12, Hse1, P38753
# Assay: SPOT array
# Conditions: median of control spots 1727
row,Binder,SPOT intensity
1,RKNRAPPQRPRFNRE,25
2,RLSRLLLSLPPESFT,59
3,APKREAPKPPANTSP,0

# Target: T13, Lsb1, P53281
# Assay: SPOT array
# Conditions: median of control spots 388
row,Binder,SPOT intensity
1,RKNRAPPQRPRFNRE,390
2,RLSRLLLSLPPESFT,6
3,APKREAPKPPANTSP,0

# Target: T14, Lsb3, P43603
# Assay: SPOT array
# Conditions: median of control spots 406
row,Binder,SPOT intensity
1,RKNRAPPQRPRFNRE,30
2,RLSRLLLSLPPESFT,0
3,APKREAPKPPANTSP,0

# Target: T15, Lsb4, P32793
# Assay: SPOT array
# Conditions: median of control spots 397
row,Binder,SPOT intensity
1,RKNRAPPQRPRFNRE,49
2,RLSRLLLSLPPESFT,3
3,APKREAPKPPANTSP,1

# Target: Myo3, P36006
# Assay: SPOT array
# Conditions: median of control spots 468
row,Binder,SPOT intensity
1,RKNRAPPQRPRFNRE,51
2,RLSRLLLSLPPESFT,10
3,APKREAPKPPANTSP,277

# Target: T16, Myo5, Q04439
# Assay: SPOT array
# Conditions: median of control spots 471
row,Binder,SPOT intensity
1,RKNRAPPQRPRFNRE,5
2,RLSRLLLSLPPESFT,0
3,APKREAPKPPANTSP,126

# Target: T17, Nbp2, Q12163
# Assay: SPOT array
# Conditions: median of control spots 357
row,Binder,SPOT intensity
1,RKNRAPPQRPRFNRE,240
2,RLSRLLLSLPPESFT,42
3,APKREAPKPPANTSP,139

# Target: T18, Pex13, P80667
# Assay: SPOT array
# Conditions: median of control spots 1341
row,Binder,SPOT intensity
1,RKNRAPPQRPRFNRE,14
2,RLSRLLLSLPPESFT,19
3,APKREAPKPPANTSP,7

# Target: T19, Pin3, Q06449
# Assay: SPOT array
# Conditions: median of control spots 2171
row,Binder,SPOT intensity
1,RKNRAPPQRPRFNRE,12
2,RLSRLLLSLPPESFT,27
3,APKREAPKPPANTSP,2

# Target: Rvs167, P39743
# Sequence (P39743 419-482): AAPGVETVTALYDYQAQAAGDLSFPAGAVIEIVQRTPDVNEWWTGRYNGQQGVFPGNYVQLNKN
# Assay: SPOT array
# Conditions: median of control spots 2707
row,Binder,SPOT intensity
1,RKNRAPPQRPRFNRE,4
2,RLSRLLLSLPPESFT,0
3,APKREAPKPPANTSP,0

# Target: Sho1, P40073
# Sequence (P40073 287-367): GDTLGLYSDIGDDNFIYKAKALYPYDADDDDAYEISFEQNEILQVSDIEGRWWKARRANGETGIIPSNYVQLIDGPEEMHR
# Assay: SPOT array
# Conditions: median of control spots 1148
row,Binder,SPOT intensity
1,RKNRAPPQRPRFNRE,178
2,RLSRLLLSLPPESFT,66
3,APKREAPKPPANTSP,0

# Target: T20, Sla1-2, P32790
# Assay: SPOT array
# Conditions: median of control spots 712
row,Binder,SPOT intensity
1,RKNRAPPQRPRFNRE,4
2,RLSRLLLSLPPESFT,0
3,APKREAPKPPANTSP,0

# Target: T21, Sla1-3, P32790
# Assay: SPOT array
# Conditions: median of control spots 5475
row,Binder,SPOT intensity
1,RKNRAPPQRPRFNRE,379
2,RLSRLLLSLPPESFT,45
3,APKREAPKPPANTSP,12
